Laboratory results from patent publication US20150313990A1.
No end group written: not given here.

Key:
[1] = biological target: recombinant soluble gp120 (isolate YU2) (HIV-1 isolate YU2), P35961; test: SPR; biotinylated pV2α (235 RU) on neutravidin-coated CM3 chip, gp120 YU2 in solution at 2, 4, 8 and 16 nM; koff-KD distribution model
[2] = biological target: recombinant soluble CD4 (number of domains not stated), P01730; test: SPR; biotinylated pV2α (235 RU) on neutravidin-coated CM3 chip, recombinant soluble CD4 in solution; koff-KD distribution model
[3] = biological target: HIV-1 BaL virions (virion-associated envelope gp120, stock grown in primary CD4+ T cells) (HIV-1 BaL); test: cell-based or functional assay

B1: biotinylated peptide pV2α (captured on neutravidin chip or biotin-captured in ELISA) (peptide)
peptide: KVQKEYALFYELDIVPID
modifications: not fully specified
Question: With B1 as the binder, how does the Kd [1] read?
Answer: Its Kd is 0.0009 µM.

Question: And the koff [1]?
Answer: Its koff is 6.4e-05 s⁻¹.

Question: What about the Kd [2] of the same binder?
Answer: The Kd was 4000 µM.

Question: What about the koff [2] of the same binder?
Answer: The koff was 0.013 s⁻¹.

B2: peptide pV2α-Tys (tyrosine-sulfated variant of peptide pV2α) (peptide)
peptide: KVQKEYALFYELDIVPID
modifications: not checked
Question: How did the IC50 of inhibition of acute infection of primary human CD4+ T cells by HIV-1 BaL [3] turn out when B2 was run?
Answer: The IC50 of inhibition of acute infection of primary human CD4+ T cells by HIV-1 BaL was 15 µM.
